Test results taken from US6348311B1, “ATM kinase modulation for screening and therapies” (St. Jude Childre's Research Hospital, priority 1999, dated 2002).
Where no end group is shown, it is not given here.

Legend:
Type in all cases: biochemical
[1] = target: T1, ATM kinase (Homo sapiens, UniProt Q13315); test: In vitro kinase assay, ATM with GST-peptide / GST-fusion substrates; settings: for Relative Phosphorylation (%) ATM: GST-peptide substrate, relative to the p53ser15 site; for phosphorylation of GST-peptide substrate by ATM (in words): GST-conjugated 14 amino acid peptides;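 for all read-outs here: immunoprecipitated ATM incubated with [γ-32P]ATP at 30 °C for 20 min, substrates resolved by SDS-PAGE and radiolabel incorporation quantified by PhosphorImager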
T1 construct: The full-length cDNA encoding NH2-terminal, FLAG-tagged wild-type ATM; made in house; host or cells: 293T cells, transient transfection with pcDNA-FLAG-ATMwt, anti-FLAG M2 immunoprecipitate on beads

[2] = target: DNA-PK (Homo sapiens, UniProt P78527); test: In vitro kinase assay, purified DNA-PK with GST-peptide / GST-fusion substrates; settings: for Relative Phosphorylation (%) DNA-PK: GST-peptide substrate, relative to the p53ser15 site
Method: (§1) FIGS. 1A, 1B, and 1C. Phosphorylation of GST-p53 mutant peptides (amino acids 9-21) by ATM, ATR, and DNA-PK in vitro. In vitro kinase assays with immunoprecipitated, transfected flag-tagged ATM (A) or ATR (B) or purified DNA-PK (C) were performed with GST-p53 peptides containing the amino acid substitutions indicated. The amount of 32P-labeled GST-peptides was quantitated with a PhosphorImager and was normalized for each of the kinases to the level of phosphorylation of wild-type GST-p53.
(§2) FIGS. 2A, 2B, and 2C. Phosphorylation of candidate targets of by ATM, ATR and DNA-PK in vitro. GST-peptides containing the putative target sequences were used as substrates for the kinase assay.
(§3) Plasmids and GST-fusion protein production. For GST fusion peptide expression vectors, complementary oligonucleotides encoding desired peptides (14 amino acids) were cloned into the BamHI/SmaI site of pGEX-2T (Pharmacia). The constructs were confirmed by restriction enzyme digests and DNA sequencing. To construct the larger GST-p95 (327-391) protein fragment, p95 DNA encoding amino acids 327-391 was amplified by PCR with Pfu polymerase using the following primers: 5′ sense,
In vitro kinase assays and immunoprecipitation. […] Cleared supernatants were immunoprecipitated with anti-Flag M2 antibody and protein A/G agarose, the beads were washed with TGN buffer followed by TGN buffer plus 0.5 M LiCl, and two washes with kinase buffer [20 mM HEPES (pH 7.5), 50 mM NaCl, 10 mM MgCl2, 1 mM dithiothreitol (DTT) and 10 mM MnCl2]. […] ATP and […] of GST-fusion substrate (GST-p53:1-101), in varying concentration of Mn^2+. The kinase reaction was conducted at 30° C. for 20 min and stopped by the addition of SDS-PAGE loading buffer. Proteins were separated on SDS-polyacrylamide gel electrophoresis (SDS-PAGE) and transferred to nitrocellulose. Radiolabeled proteins were visualized and quantitated on a Phosphorimager (Molecular Dynamics). Use of equivalent amounts of flag-tagged ATM or ATR in the different lanes was confirmed by immunoblotting with anti-flag antibody. In some reactions, either supercoiled DNA (pBluescript II KS, Stratagene) or linearized DNA (pBluescript II KS cut with EcoR1) was added ([…]). For endogenous ATM kinase reactions, endogenous ATM was immunoprecipitated from GM0536 lymphhoblasts with ATM monoclonal antibody (D16.11) in M buffer (PBS, 10% glycerol, 0.2% Tween 20, 0.3% NP-40, 1 mM NaF, 1 mM Na3VO4, 1 mM PMSF, 1x protease inhibitor mixture]. After washing with M buffer and kinase buffer, in vitro kinase reactions were carried out according to procedures described above. The DNA-PK in vitro kinase reaction was performed as previously described (Gottlieb and Jackson, 1993), using 20 ng each of DNA-PKcs or DNA-PK (20 ng DNA-PKcs premixed with 20 ng Ku 70/80).

[3] = target: T2, ATR (Homo sapiens, UniProt Q13535); test: In vitro kinase assay, ATR with GST-peptide / GST-fusion substrates; settings: for Relative Phosphorylation (%) ATR: GST-peptide substrate, relative to the p53ser15 site
T2 construct: made in house; host or cells: 293T cells, transient transfection with pBJF-FRPwt, anti-FLAG M2 immunoprecipitate
Method: as §1, §2
Transfection and Kinase Activity Assays. 293T cells were transiently transfected with 10 μg of either pcDNA-FLAG-ATMwt, pcDNA-FLAG-ATMkd, pBJF-FRPwt or pBJF-FRPkd (Cliby et al., EMBO J., 17:159, 1998) using calcium phosphate and harvested two days later. Cells were lysed through sonication in TGN buffer [50 mM Tris (pH 7.5), 50 mM glycerophosphate, 150 mM NaCl, 10% glycerol, 1% Tween 20, 1 mM NaF, 1 mM NaVO4, 1 mM PMSF, […] Pepstatin A, 5 μg/ml leupeptin, 10 μg/ml Aprotinin and 1 mM DTT] as described (Brunn et al., Science, 277:99-101,1997). After centrifugation at 13,000 ×g, 2 mg of extract were incubated with mouse IgG and protein A/G sepharose beads (Calbiochem). FLAG-tagged proteins were then immunoprecipitated with anti-FLAG M2 monoclonal antibody (Eastman Kodak Company) and protein A/G sepharose beads. Immunoprecipitates were washed twice with TGN buffer, once with 100 mM Tris (pH 7.5) plus 0.5 M LiCl, and twice with kinase buffer [10 mM Hepes (pH 7.5), 50 mM glycerophosphate, 50 mM NaCl, 10 mM MgCl2, 10 mM MnCl2, 5 μM ATP, and 1 mM DTT]. Kinase reactions were initiated by resuspending washed beads in 30 μl of kinase buffer containing 10 μCi [γ-^32P]ATP and 1 μg GSTp531-101 and incubated for 30 minutes at 30° C. Proteins were electrophoretically separated by SDS-polyacrylamide gel electrophoresis, transferred to nitrocellulose, and analyzed on a PhosphorImager. FLAG-tagged proteins and GSTp531-101 were subjected to immunoblotting with either anti-FLAG M2 antibody or monoclonal antibodies directed towards the NH2-terminus of p53 (Ab-2 and Ab-6, Calbiochem) as described (Siliciano et al., Genes Dev., 11:3471, 1997).
Phosphorylation of Ser^15 of p53 by ATM and ATR/FRP1 in vitro. […] Proteins from each reaction were separated by SDS polyacrylamide gel electrophoresis (7% gel), transferred to nitrocellulose, and analyzed either on a PhosphorImager or by immunoblotting. Amounts of FLAG-tagged ATM or ATR in each kinase reaction were measured by immunoblotting with anti-FLAG M2 (top panel) and amount of [γ^32P]phosphate incorporated into ATM or ATR during the reaction (lower panel). […] An upper immunoreactive band represents phosphorylated GSTp53 fusion protein. The same exposures were used for ATM, ATR/FRP1 and corresponding substrate proteins.
as §3
In vitro kinase assays and immunoprecipitation. […] Cleared supernatants were immunoprecipitated with anti-Flag M2 antibody and protein A/G agarose, the beads were washed with TGN buffer followed by TGN buffer plus 0.5 M LiCl, and two washes with kinase buffer [20 mM HEPES (pH 7.5), 50 mM NaCl, 10 mM MgCl2, 1 mM dithiothreitol (DTT) and 10 mM MnCl2]. […] ATP and […] of GST-fusion substrate (GST-p53:1-101), in varying concentration of Mn^2+. […]

T1 sequence (Q13315 whole entry, the tested form may be a part): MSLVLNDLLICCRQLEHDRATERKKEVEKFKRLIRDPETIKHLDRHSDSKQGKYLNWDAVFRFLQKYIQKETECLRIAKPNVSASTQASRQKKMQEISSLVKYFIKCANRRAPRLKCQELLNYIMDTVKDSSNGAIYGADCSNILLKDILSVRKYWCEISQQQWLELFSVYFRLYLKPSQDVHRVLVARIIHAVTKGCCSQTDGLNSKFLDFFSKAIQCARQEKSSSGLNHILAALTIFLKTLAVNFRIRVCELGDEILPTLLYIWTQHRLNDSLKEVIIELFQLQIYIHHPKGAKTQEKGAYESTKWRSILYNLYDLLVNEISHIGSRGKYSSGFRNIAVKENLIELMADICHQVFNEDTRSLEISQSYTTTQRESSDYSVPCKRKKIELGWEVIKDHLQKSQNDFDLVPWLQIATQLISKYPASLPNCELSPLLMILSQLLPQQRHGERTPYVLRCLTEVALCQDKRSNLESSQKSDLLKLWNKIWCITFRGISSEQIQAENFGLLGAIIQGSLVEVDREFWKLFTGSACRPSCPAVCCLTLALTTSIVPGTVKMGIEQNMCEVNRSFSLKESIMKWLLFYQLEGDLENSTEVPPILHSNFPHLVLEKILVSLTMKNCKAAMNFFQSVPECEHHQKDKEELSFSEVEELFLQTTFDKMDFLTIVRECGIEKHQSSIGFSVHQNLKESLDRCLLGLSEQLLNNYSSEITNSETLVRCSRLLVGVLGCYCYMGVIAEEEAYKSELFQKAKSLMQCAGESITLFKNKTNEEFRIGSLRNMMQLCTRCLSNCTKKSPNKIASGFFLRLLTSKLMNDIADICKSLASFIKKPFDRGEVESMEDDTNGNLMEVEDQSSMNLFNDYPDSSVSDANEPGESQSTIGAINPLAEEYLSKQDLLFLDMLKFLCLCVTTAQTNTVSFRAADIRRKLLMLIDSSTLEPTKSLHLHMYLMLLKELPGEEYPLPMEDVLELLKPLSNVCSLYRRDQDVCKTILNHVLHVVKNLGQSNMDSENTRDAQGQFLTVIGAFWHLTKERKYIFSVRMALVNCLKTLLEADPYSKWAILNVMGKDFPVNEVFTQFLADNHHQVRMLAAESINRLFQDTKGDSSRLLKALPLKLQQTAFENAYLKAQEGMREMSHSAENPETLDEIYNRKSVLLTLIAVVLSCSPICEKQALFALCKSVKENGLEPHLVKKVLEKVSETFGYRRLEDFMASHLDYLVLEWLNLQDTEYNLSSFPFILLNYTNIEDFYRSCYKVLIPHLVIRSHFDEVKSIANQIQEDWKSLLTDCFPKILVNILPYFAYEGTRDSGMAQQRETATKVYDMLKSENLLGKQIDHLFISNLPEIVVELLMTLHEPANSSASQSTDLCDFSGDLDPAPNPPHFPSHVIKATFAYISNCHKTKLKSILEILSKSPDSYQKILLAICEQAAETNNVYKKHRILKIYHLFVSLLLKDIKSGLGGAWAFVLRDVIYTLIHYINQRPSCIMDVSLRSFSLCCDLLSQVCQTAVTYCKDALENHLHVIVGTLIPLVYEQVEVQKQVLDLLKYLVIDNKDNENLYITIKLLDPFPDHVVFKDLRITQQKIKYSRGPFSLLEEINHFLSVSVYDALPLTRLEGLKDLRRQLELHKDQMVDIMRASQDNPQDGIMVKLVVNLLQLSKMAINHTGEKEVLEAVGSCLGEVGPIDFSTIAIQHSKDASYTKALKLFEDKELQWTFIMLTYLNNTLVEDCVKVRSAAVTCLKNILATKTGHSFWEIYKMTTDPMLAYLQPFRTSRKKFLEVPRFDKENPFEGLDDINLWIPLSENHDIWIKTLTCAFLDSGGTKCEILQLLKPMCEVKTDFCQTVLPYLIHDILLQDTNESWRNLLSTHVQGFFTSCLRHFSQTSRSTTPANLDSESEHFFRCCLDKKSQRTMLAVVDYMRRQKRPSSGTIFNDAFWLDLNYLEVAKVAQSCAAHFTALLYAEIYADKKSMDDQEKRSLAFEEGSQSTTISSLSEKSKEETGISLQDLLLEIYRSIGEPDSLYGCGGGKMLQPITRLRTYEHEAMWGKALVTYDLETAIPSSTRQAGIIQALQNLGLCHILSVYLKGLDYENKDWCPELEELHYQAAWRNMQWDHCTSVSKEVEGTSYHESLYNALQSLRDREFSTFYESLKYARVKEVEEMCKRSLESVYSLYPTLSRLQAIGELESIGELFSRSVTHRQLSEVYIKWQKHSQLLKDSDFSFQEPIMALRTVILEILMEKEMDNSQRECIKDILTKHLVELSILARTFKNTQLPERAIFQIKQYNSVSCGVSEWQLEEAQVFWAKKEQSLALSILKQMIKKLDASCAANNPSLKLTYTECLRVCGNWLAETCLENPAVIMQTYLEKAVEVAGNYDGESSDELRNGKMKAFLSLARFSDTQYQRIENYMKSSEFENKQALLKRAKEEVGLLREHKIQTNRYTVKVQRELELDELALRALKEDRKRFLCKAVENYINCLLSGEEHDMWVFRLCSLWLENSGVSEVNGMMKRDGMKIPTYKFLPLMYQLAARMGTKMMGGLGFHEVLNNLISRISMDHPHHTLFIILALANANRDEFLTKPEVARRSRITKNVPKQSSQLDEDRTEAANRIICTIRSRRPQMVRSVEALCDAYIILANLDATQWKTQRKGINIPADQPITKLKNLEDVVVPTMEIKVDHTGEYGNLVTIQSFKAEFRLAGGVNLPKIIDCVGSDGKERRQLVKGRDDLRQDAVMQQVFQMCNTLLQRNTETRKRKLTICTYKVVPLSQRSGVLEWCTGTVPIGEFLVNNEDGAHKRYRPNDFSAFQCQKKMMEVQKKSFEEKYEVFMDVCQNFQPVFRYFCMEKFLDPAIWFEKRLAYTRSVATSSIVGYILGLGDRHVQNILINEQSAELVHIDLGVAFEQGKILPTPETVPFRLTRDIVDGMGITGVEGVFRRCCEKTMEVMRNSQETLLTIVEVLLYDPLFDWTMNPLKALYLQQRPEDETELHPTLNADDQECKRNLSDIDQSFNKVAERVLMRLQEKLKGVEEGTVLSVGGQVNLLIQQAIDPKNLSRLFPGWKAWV

Row | Compound | Relative Phosphorylation (%) ATM [1] [%] | Relative Phosphorylation (%) DNA-PK [2] [%] | Relative Phosphorylation (%) ATR [3] [%] | phosphorylation of GST-peptide substrate by ATM (in words) [1] | effect of addition on activity of endogenous ATM ([1]; endogenous ATM immunoprecipitated under mild conditions) | effect of addition on ATM kinase activity ([1]; transfected flag-tagged ATM, GST-p53 (1-101) substrate) | effect of addition on DNA-PK activity ([2]; purified DNA-PK, GST-p53 (1-101) substrate) | effect of addition on ATR kinase activity ([3]; transfected flag-tagged ATR, GST-p53 (1-101) substrate) | phosphorylation of GST-peptide substrate by ATR (in words) ([3]; GST-conjugated 14 amino acid peptides)
1 | p115-RhoGEF: GST-peptide RLRPLLSQLGGNSV (SEQ ID NO:27), S899 (not fully specified (N-terminus); also: GST fusion; listed as Homo sapiens) | <1 | <1 | 15 |  |  |  |  |  | 
2 | 4EBP1 (Phas I): GST-peptide EPPMEASQSHLRNS (SEQ ID NO:9), S94 (also: GST fusion) | 78 | 10 | 66 | excellent in vitro substrate |  |  |  |  | 
3 | DNA 5B: GST-peptide QPEPPVSQSEISEP (SEQ ID NO:38), S72 (also: GST fusion) | 3 | 15 | 145 |  |  |  |  |  | 
4 | BRCA1 (SQ3): GST-peptide SSEYPISQNPEGLS (SEQ ID NO:34), S1466 (also: GST fusion) | 8 | 12 | 33 |  |  |  |  |  | 
5 | [Mn+2] [Mn^2+] |  |  |  |  | dependent | dependent | not altered | dependent | 
6 | MRE11 (SQ1): GST-peptide QQLFYISQPGSSVV (SEQ ID NO:11), S264 (also: GST fusion) | 20 | 10 | 48 |  |  |  |  |  | 
7 | RPA34kD (SQ2): GST-peptide IVPCTISQLLSATL (SEQ ID NO:41), S52 (not fully specified (N-terminus); also: GST fusion; listed as Homo sapiens) | <1 | <1 | 31 |  |  |  |  |  | 
8 | CHK1 (SQ2): GST-peptide VQGISFSQPTCPDH (SEQ ID NO:17), S345 (also: GST fusion) | 11 | 20 | 73 |  |  |  |  |  | 
9 | BRCA2: GST-peptide KVSPYLSQFQQDKQ (SEQ ID NO:29), S2156 (also: GST fusion) | <1 | <1 | 132 | not by ATM |  |  |  |  | phosphorylated by ATR
10 | MRE11 (SQ2): GST-peptide FSVLRFSQKFVDRV (SEQ ID NO:12), S386 (also: GST fusion) | <1 | <1 | 17 |  |  |  |  |  | 

The next lines start with the values.

Row | Relative Phosphorylation (%) ATM [1] [%] | Relative Phosphorylation (%) DNA-PK [2] [%] | Relative Phosphorylation (%) ATR [3] [%] | phosphorylation of GST-peptide substrate by ATM (in words) [1] | effect of addition on activity of endogenous ATM ([1]; endogenous ATM immunoprecipitated under mild conditions) | effect of addition on ATM kinase activity ([1]; transfected flag-tagged ATM, GST-p53 (1-101) substrate) | effect of addition on DNA-PK activity ([2]; purified DNA-PK, GST-p53 (1-101) substrate) | effect of addition on ATR kinase activity ([3]; transfected flag-tagged ATR, GST-p53 (1-101) substrate) | phosphorylation of GST-peptide substrate by ATR (in words) ([3]; GST-conjugated 14 amino acid peptides) | Compound
11 | <1 | <1 | 8 |  |  |  |  |  |  | c-ABL: GST-peptide YPGIDLSQVYELLE (SEQ ID NO:23), S446 (not fully specified (N-terminus); also: GST fusion; listed as Homo sapiens)
12 | 81 | 97 | 733 |  |  |  |  |  |  | RAD17 (SQ1): GST-peptide TWSLPLSQDSASEL (SEQ ID NO:18), S646 (not fully specified (N-terminus); also: GST fusion)
13 | 91 | 25 | 1065 |  |  |  |  |  |  | RAD17 (SQ2): GST-peptide ASELPASQPQPFSA (SEQ ID NO:19), S656 (not fully specified (N-terminus); also: GST fusion; listed as Homo sapiens)
14 | 2 | 6 | 38 |  |  |  |  |  |  | BRCA1 (SQ1): GST-peptide SASLFSSQCSELED (SEQ ID NO:32), S1298 (also: GST fusion)
15 | 3 | <1 | 22 |  |  |  |  |  |  | ATM S2761: GST-peptide YKVVPLSQRSGVLE (SEQ ID NO:25), S2761 of ATM (also: GST fusion)
16 | <1 | <1 | 5 |  |  |  |  |  |  | RPA34kD (SQ1): GST-peptide FPAPAPSQAEKKSR (SEQ ID NO:40), S33 (not fully specified (N-terminus); also: GST fusion; listed as Homo sapiens)
17 | <1 | <1 | 150 |  |  |  |  |  |  | PI-3K: GST-peptide DLLMYLSQLVQALK (SEQ ID NO:26), S397 (also: GST fusion)
